Measurements from patent US11814447B2, “Peptide ligands for binding to EphA2” (BICYCLERD LIMITED, priority 2018, dated 2023).
Starred links: 1 amine or outer side, 2 acyl side, 3 side chain; linkers in the order of their positions; H or OH if unused. Positions of bridges follow the written chain, without caps; N, C: chain ends. Non-standard residues stand in square brackets, D forms with d. Primed or numbered codes have the meaning given here. No end group written: not given here. TBMB′ = 1,3,5-tris(bromomethyl)benzene, 1,3,5-tris(methylene)benzene core, three thioethers to Cys; 4FlPro = 4-fluoropyrrolidine-2-carboxylic acid (4-fluoroproline); Phe(3,4-Cl2) = N[C@@H](Cc1ccc(Cl)c(Cl)c1)C(=O)O; Bip = N[C@@H](Cc1ccc(-c2ccccc2)cc1)C(=O)O; Phe(4-Br) = N[C@@H](Cc1ccc(Br)cc1)C(=O)O; 1Nal = N[C@@H](Cc1cccc2ccccc12)C(=O)O; 2Nal = N[C@@H](Cc1ccc2ccccc2c1)C(=O)O; TBMB = c1c(C[*:1])cc(C[*:3])cc1C[*:2]; Hyp = O=C(O)[C@@H]1C[C@@H](O)CN1; hArg = N=C(N)NCCCC[C@H](N)C(=O)O; hPhe = N[C@@H](CCc1ccccc1)C(=O)O; 3Pal = N[C@@H](Cc1cccnc1)C(=O)O; Phg = N[C@H](C(=O)O)c1ccccc1; Tle = CC(C)(C)[C@H](N)C(=O)O; Pip = O=C(O)[C@@H]1CCCCN1; Aze = O=C(O)[C@@H]1CCN1; Aib = CC(C)(N)C(=O)O; Sar = CNCC(=O)O

What follows are binders tested against T1, Human EphA2 (Ecto), C-terminal polyHis (Human, UniProt P29317 24-537) (assay: fluorescence polarisation competition; competitor fluorescent Compound 18).
T1 construct: extracellular domain; also called EPH receptor A2; ephrin type-A receptor 2
T1 sequence (P29317 24-537): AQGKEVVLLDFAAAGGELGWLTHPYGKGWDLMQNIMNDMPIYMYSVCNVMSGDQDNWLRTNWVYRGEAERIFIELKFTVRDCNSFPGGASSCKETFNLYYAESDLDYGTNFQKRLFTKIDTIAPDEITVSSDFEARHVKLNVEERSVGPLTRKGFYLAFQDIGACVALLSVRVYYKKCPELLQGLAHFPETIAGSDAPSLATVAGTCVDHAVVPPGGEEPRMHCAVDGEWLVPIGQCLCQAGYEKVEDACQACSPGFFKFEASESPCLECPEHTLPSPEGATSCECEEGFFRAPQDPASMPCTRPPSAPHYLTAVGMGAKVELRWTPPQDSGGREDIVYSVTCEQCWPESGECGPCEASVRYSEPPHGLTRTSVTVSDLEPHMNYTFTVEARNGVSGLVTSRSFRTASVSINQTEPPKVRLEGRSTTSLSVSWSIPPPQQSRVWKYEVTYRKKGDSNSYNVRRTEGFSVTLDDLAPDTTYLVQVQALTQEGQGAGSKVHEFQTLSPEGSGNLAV
Method: (§1) Peptides without a fluorescent tag were tested in competition with a peptide with a fluorescent tag and a known Kd (Table 2). Peptides were diluted to an appropriate concentration in assay buffer as described in the direct binding assay with a maximum of 5% DMSO, then serially diluted 1 in 2. […] Measurements were conducted as for the direct binding assay, however the gain was determined prior to the first measurement. Data analysis was in Systat Sigmaplot version 12.0 where the mP values were fit to a user defined cubic equation to generate a Ki value: […]

Row | Binder | Ki
1 | [Sar][Sar]AC[Aib][1Nal]GPFWCPV[dA]RPGC (linker 4-11-18 via TBMB, also called Sar2-AC(Aib)(1Nal)GPFWCPV(D-Ala)RPGC) [Bicycle Compound Number 124 (TBMB scaffold)] | 26 nM
2 | [Sar][Sar]ACPWG[Aib]FWCPVNRPGC (linker 4-11-18 via TBMB′, also called Compound 80) [Bicycle Compound Number 80 (TBMB scaffold)] | 120 nM
3 | [Sar][Sar]ACP[1Nal]GPFWCP[Tle]N[hArg][Aib]GC (linker 4-11-18 via TBMB) [Bicycle Compound Number 138 (TBMB scaffold)] | 5.1 nM
4 | [Sar][Sar]ACPWGP[hPhe]WCPVNRPGC (linker 4-11-18 via TBMB′, also called Compound 87) [Bicycle Compound Number 87 (TBMB scaffold)] | 162 nM
5 | [Sar][Sar]ACPWGPF[1Nal]CPVNRP[dA]C (linker 4-11-18 via TBMB, also called Sar2-ACPWGPF(1Nal)CPVNRP(D-Ala)C) [Bicycle Compound Number 118 (TBMB scaffold)] | 37 nM
6 | [Sar][Sar]AC[Aib][1Nal]G[Aib]FWCPVNR[Aib]GC (linker 4-11-18 via TBMB) [Bicycle Compound Number 135 (TBMB scaffold)] | 43 nM
7 | ACPWGPFWCPVNRPGCA (linker 2-9-16 via TBMB, also called Compound 69) [Bicycle Compound Number 69 (TBMB scaffold)] | 107 nM
8 | [Sar][Sar]ACP[1Nal]G[Aib]FWCP[Tle]N[hArg]PGC (linker 4-11-18 via TBMB) [Bicycle Compound Number 136 (TBMB scaffold)] | 23 nM
9 | AHDVPCPWGPFWCPVNRPGCA (linker 6-13-20 via TBMB (inferred), also called Compound 59) [Bicycle Compound Number 59 (TBMB scaffold)] | 0.54 nM
10 | [Sar][Sar]ACPWGPFWCPVNRP[dA]C (linker 4-11-18 via TBMB) [Bicycle Compound Number 112 (TBMB scaffold)] | 89 nM
11 | [Sar][Sar]ACP[1Nal]GPFWCP[Tle]N[hArg]PGC (linker 4-11-18 via TBMB, also called Compound 130; Sar2-ACP(1Nal)GPFWCP(tBuGly)N(HArg)PGC) [Bicycle Compound Number 130 (TBMB scaffold)] | 0.29 nM

What follows are binders tested against T1, Human EphA2 (Ecto), C-terminal polyHis (assay: fluorescence polarisation competition; competitor fluorescent Compound 66).
Method: as §1

Row | Binder | Ki
12 | [Sar][Sar]ACPWGP[Bip]WCPVNRPGC (linker 4-11-18 via TBMB′, also called Compound 88) [Bicycle Compound Number 88 (TBMB scaffold)] | 183 nM
13 | [Sar][Sar]ACP[1Nal]G[Aib]FWCPVNRPGC (linker 4-11-18 via TBMB) [Bicycle Compound Number 119 (TBMB scaffold)] | 8.4 nM
14 | ACMNDWLCQLGWTCA (linker 2-8-14 via TBMB, also called Compound 30) [Bicycle Compound Number 30 (TBMB scaffold)] | 56 nM
15 | ACMNDWLCSLGWTCA (linker 2-8-14 via TBMB, also called Compound 24) [Bicycle Compound Number 24 (TBMB scaffold)] | 82.3 nM
16 | [Sar][Sar]ACPWGPFWC[Hyp]VNRPGC (linker 4-11-18 via TBMB′, also called Compound 98) [Bicycle Compound Number 98 (TBMB scaffold)] | 163 nM
17 | [Sar][Sar]ACPWG[Aib]FWCPVNRPGC (linker 4-11-18 via TBMB′, also called Compound 80) [Bicycle Compound Number 80 (TBMB scaffold)] | 187 nM
18 | [Sar][Sar]ACPWGP[3Pal]WCPVNRPGC (linker 4-11-18 via TBMB′, also called Compound 92) [Bicycle Compound Number 92 (TBMB scaffold)] | 165 nM
19 | [Sar][Sar]ACPWGP[Phg]WCPVNRPGC (linker 4-11-18 via TBMB′, also called Compound 93) [Bicycle Compound Number 93 (TBMB scaffold)] | 412 nM
20 | [Sar][Sar]AC[Aib]WGPF[1Nal]CPVNRPGC (linker 4-11-18 via TBMB) [Bicycle Compound Number 114 (TBMB scaffold)] | 43 nM
21 | [Sar][Sar]ACPWGPFWCPVNR[Aze]GC (linker 4-11-18 via TBMB) [Bicycle Compound Number 106 (TBMB scaffold)] | 155 nM
22 | ACRVSPEYCPFGPVWCA (linker 2-9-16 via TBMB, also called Compound 33) [Bicycle Compound Number 33 (TBMB scaffold)] | 78.5 nM
23 | ACRVSPEYCPFGPSWCA (linker 2-9-16 via TBMB, also called Compound 36) [Bicycle Compound Number 36 (TBMB scaffold)] | 40.5 nM
24 | ACRVSPEYCPFGPYWCA (linker 2-9-16 via TBMB, also called Compound 38) [Bicycle Compound Number 38 (TBMB scaffold)] | 26.5 nM
25 | ACRVSPEYCPFGPEWCA (linker 2-9-16 via TBMB, also called Compound 37) [Bicycle Compound Number 37 (TBMB scaffold)] | 61.2 nM
26 | [Sar][Sar]AC[Aib][1Nal]G[Aib]FWCPVNR[Aib]GC (linker 4-11-18 via TBMB) [Bicycle Compound Number 135 (TBMB scaffold)] | 30 nM
27 | ACPWGPFWCPVNRPGCA (linker 2-9-16 via TBMB, also called Compound 69) [Bicycle Compound Number 69 (TBMB scaffold)] | 70.1 nM
28 | [Sar][Sar]ACPWGP[2Nal]WCPVNRPGC (linker 4-11-18 via TBMB′, also called Compound 95) [Bicycle Compound Number 95 (TBMB scaffold)] | 362 nM
29 | [Sar][Sar]ACPWGPFWCPVNR[4FlPro]GC (linker 4-11-18 via TBMB) [Bicycle Compound Number 109 (TBMB scaffold)] | 184 nM
30 | [Sar][Sar]ACPWGP[Phe(4-Br)]WCPVNRPGC (linker 4-11-18 via TBMB′, also called Compound 85) [Bicycle Compound Number 85 (TBMB scaffold)] | 174 nM
31 | [Sar][Sar]ACPWGP[1Nal]WCPVNRPGC (linker 4-11-18 via TBMB′, also called Compound 94) [Bicycle Compound Number 94 (TBMB scaffold)] | 196 nM
32 | [Sar][Sar]ACPWGPFWC[Aze]VNRPGC (linker 4-11-18 via TBMB′, also called Compound 97) [Bicycle Compound Number 97 (TBMB scaffold)] | 286 nM
33 | [Sar][Sar]ACP[1Nal]G[Aib]FWCP[Tle]N[hArg]PGC (linker 4-11-18 via TBMB) [Bicycle Compound Number 136 (TBMB scaffold)] | 15 nM
34 | ACRVSPEYCPFGPVWCAGAAA (linker 2-9-16 via TBMB, also called Compound 34) [Bicycle Compound Number 34 (TBMB scaffold)] | 77.4 nM
35 | ARDDPCPWGPFWCPVNRPGCA (linker 6-13-20 via TBMB (inferred), also called Compound 62) [Bicycle Compound Number 62 (TBMB scaffold)] | 28 nM
36 | [Sar][Sar]ACPWGPFWCPVNR[Pip]GC (linker 4-11-18 via TBMB) [Bicycle Compound Number 108 (TBMB scaffold)] | 374 nM
37 | [Sar][Sar]ACPWGPFWC[4FlPro]VNRPGC (linker 4-11-18 via TBMB, also called Compound 99) [Bicycle Compound Number 99 (TBMB scaffold)] | 270 nM
38 | ACPWGPAWCPVRDTNCA (linker 2-9-16 via TBMB, also called Compound 42) [Bicycle Compound Number 42 (TBMB scaffold)] | 316 nM
39 | [Sar][Sar]ACPWGPFWCPVARPGC (linker 4-11-18 via TBMB) [Bicycle Compound Number 101 (TBMB scaffold)] | 265 nM
40 | [Sar][Sar]ACPWGPFWCPVNR[dA]GC (linker 4-11-18 via TBMB) [Bicycle Compound Number 105 (TBMB scaffold)] | 471 nM
41 | [Sar][Sar]ACPWGP[Phe(3,4-Cl2)]WCPVNRPGC (linker 4-11-18 via TBMB′, also called Compound 90) [Bicycle Compound Number 90 (TBMB scaffold)] | 361 nM
